We go through five proteins from article PMC4525163, “Assembly-driven activation of the AIM2 foreign-dsDNA sensor provides a polymerization template for downstream ASC” (Nature Communications, 2015).

Data set [1] deals with the molecule itself. Description: negative-stain electron microscopy; dsDNA-free AIM2FL variants at 2 uM adsorbed to carbon grids, stained with 1% uranyl formate or uranyl acetate; filaments.
Data set [2] concerns the molecule itself. Description: negative stain electron microscopy; purified protein incubated 30 min with λdsDNA (wild type also with supercoiled and nicked circular plasmids), 160 mM KCl; filament formation on dsDNA.

B1: E147A-AIM2FL (natural protein, UniProt O14862 1-343, looked up)
chain: MESKYKEILLLTGLDNITDEELDRFKFFLSDEFNIATGKLHTANRIQVATLMIQNAGAVSAVMKTIRIFQKLNYMLLAKRLQEEKEKVDKQYKSVTKPKPLSQAEMSPAASAAIRNDVAKQRAAPKVSPHVKPEQKQMVAQQESIRAGFQKRCLPVMVLKAKKPFTFETQEGKQEMFHATVATEKEFFFVKVFNTLLKDKFIPKRIIIIARYYRHSGFLEVNSASRVLDAESDQKVNVPLNIIRKAGETPKINTLQTQPLGTIVNGLFVVQKVTEKKKNILFDLSDNTGKMEVLGVRNEDTMKCKEGDKVRLTFFTLSKNGEKLQLTSGVHSTIKVIKAKKKT
notes: AIM2 (absent-in-melanoma-2), full length, residues 1-343, with E147A in the HIN200 domain; source: E. coli ER2566, purified (amylose resin, HiTrap-SP, TEV cleavage, gel filtration); not shown: MBP, N-terminal, cleaved
Take B1: the binding result in data set [1] is on record as “binds”.

B2: T50A-AIM2FL (natural protein, UniProt O14862 1-343, looked up)
chain: MESKYKEILLLTGLDNITDEELDRFKFFLSDEFNIATGKLHTANRIQVAALMIQNAGAVSAVMKTIRIFQKLNYMLLAKRLQEEKEKVDKQYKSVTKPKPLSQAEMSPAASAAIRNDVAKQRAAPKVSPHVKPEQKQMVAQQESIREGFQKRCLPVMVLKAKKPFTFETQEGKQEMFHATVATEKEFFFVKVFNTLLKDKFIPKRIIIIARYYRHSGFLEVNSASRVLDAESDQKVNVPLNIIRKAGETPKINTLQTQPLGTIVNGLFVVQKVTEKKKNILFDLSDNTGKMEVLGVRNEDTMKCKEGDKVRLTFFTLSKNGEKLQLTSGVHSTIKVIKAKKKT
notes: AIM2 (absent-in-melanoma-2), full length, residues 1-343, with T50A in the PYD; source: E. coli ER2566, purified (amylose resin, HiTrap-SP, TEV cleavage, gel filtration); not shown: MBP, N-terminal, cleaved
Take B2: the binding result in data set [1] is listed as “binds”.

B3: I46D mutant of full-length AIM2 (natural protein, UniProt O14862 1-343, looked up)
chain: MESKYKEILLLTGLDNITDEELDRFKFFLSDEFNIATGKLHTANRDQVATLMIQNAGAVSAVMKTIRIFQKLNYMLLAKRLQEEKEKVDKQYKSVTKPKPLSQAEMSPAASAAIRNDVAKQRAAPKVSPHVKPEQKQMVAQQESIREGFQKRCLPVMVLKAKKPFTFETQEGKQEMFHATVATEKEFFFVKVFNTLLKDKFIPKRIIIIARYYRHSGFLEVNSASRVLDAESDQKVNVPLNIIRKAGETPKINTLQTQPLGTIVNGLFVVQKVTEKKKNILFDLSDNTGKMEVLGVRNEDTMKCKEGDKVRLTFFTLSKNGEKLQLTSGVHSTIKVIKAKKKT
notes: AIM2 (absent-in-melanoma-2), residues 1-343, mutation in the PYD; Probably with the MBP tag removed as for wild-type AIM2^FL; source: E. coli ER2566, purified
With B3, the binding result in data set [2] is “binds”.

B4: Q258A-AIM2FL (natural protein, UniProt O14862 1-343, looked up)
chain: MESKYKEILLLTGLDNITDEELDRFKFFLSDEFNIATGKLHTANRIQVATLMIQNAGAVSAVMKTIRIFQKLNYMLLAKRLQEEKEKVDKQYKSVTKPKPLSQAEMSPAASAAIRNDVAKQRAAPKVSPHVKPEQKQMVAQQESIREGFQKRCLPVMVLKAKKPFTFETQEGKQEMFHATVATEKEFFFVKVFNTLLKDKFIPKRIIIIARYYRHSGFLEVNSASRVLDAESDQKVNVPLNIIRKAGETPKINTLQTAPLGTIVNGLFVVQKVTEKKKNILFDLSDNTGKMEVLGVRNEDTMKCKEGDKVRLTFFTLSKNGEKLQLTSGVHSTIKVIKAKKKT
notes: AIM2 (absent-in-melanoma-2), full length, residues 1-343, with Q258A in the HIN200 domain; source: E. coli ER2566, purified (amylose resin, HiTrap-SP, TEV cleavage, gel filtration); not shown: MBP, N-terminal, cleaved
B4: the binding result in data set [1] is “binds”.

B5: L10A-L11A-AIM2^FL (natural protein, UniProt O14862 1-343, looked up)
chain: MESKYKEILAATGLDNITDEELDRFKFFLSDEFNIATGKLHTANRIQVATLMIQNAGAVSAVMKTIRIFQKLNYMLLAKRLQEEKEKVDKQYKSVTKPKPLSQAEMSPAASAAIRNDVAKQRAAPKVSPHVKPEQKQMVAQQESIREGFQKRCLPVMVLKAKKPFTFETQEGKQEMFHATVATEKEFFFVKVFNTLLKDKFIPKRIIIIARYYRHSGFLEVNSASRVLDAESDQKVNVPLNIIRKAGETPKINTLQTQPLGTIVNGLFVVQKVTEKKKNILFDLSDNTGKMEVLGVRNEDTMKCKEGDKVRLTFFTLSKNGEKLQLTSGVHSTIKVIKAKKKT
notes: AIM2 (absent-in-melanoma-2), residues 1-343, mutations in the PYD; Probably with the MBP tag removed as for wild-type AIM2^FL; source: E. coli ER2566, purified
On to B5, for which the binding result in data set [2] is reported as “binds”.
